Test [1] has as its target PneKC without His tag, co-expressed with N-terminally His-tagged PneA (Streptococcus pneumoniae). As to the kind of experiment: negative-stain EM.
The target of test [2] is T1, PneKC, wild type, N-terminally His-tagged, expressed without PneA (apo PneKC) (Streptococcus pneumoniae). As to the kind of experiment: negative-stain EM.
Test [3] deals with T1, PneKC, wild type, N-terminally …. As to the kind of experiment: SEC.
Test [4] addresses PneKC, wild type, N-terminal His7 tag, co-expressed with PneA from pQLinkN-PneKC-PneA (Streptococcus pneumoniae). As to the kind of experiment: SEC. For orientation: In gel filtration, larger molecules generally elute earlier.

For the molecule “PneKC without His tag, co-expressed with N-terminally His-tagged PneA (enzyme)”, the stoichiometry N – broadly, a count of units in the complex or per binding partner – in test [1] was determined as 2.

B1: PneKC, wild type, N-terminally His-tagged, expressed without PneA (apo PneKC) (enzyme)
chain: MDYNFNLEHPFFFTNNDYSTDTSIKYQASLPFNWHEVMNNDEWVYQYPIGKFVERQGWKIHISSEYNSSHELLQDVAKICHEMRIPFKHLSTEDKFIMRNGKLVSRGFSGKFITCYPNQNELESVLQRLESALKQYNGPYILSDKRWDEAPIYLRYGVFRPSRDDEKKVAIDELIVGDEVVKDERLPVFKIPKGIVPPDFLNKWLDKKDKKQGDFPFIIDNAIRFSNSGGIYNARLKEDGKKIILKEARPYTGLGFDGTYSSEKLASECKALKILNEWSEAPKIYWHGKIWEHTFLGIEHMKGVPLNRWVTNNFPLYEVVDKTKDYLLRVSKIVEKLIDLTNKFHSENVYHQDLHLGNILVKDEDEISIIDWEQAVFSNDEKVVHKVAAPGFRAWRETLPSEIDWYGIRQIAHYLYMPLVTTSDLTYNYVSQTRIEGKKLFESLGYTREHIDYVESLLSYLDSKCPQIENISRKKVLKPMHEIRTIESEQDIQDFIIKLLRGFTLTYGQWRKEFQSRFFPVHYYGLNFNQGIAFSDLAILWSYQQLAKKVKNFKFDDYYEIRTQVINEAVNNFKKSSLSGLFDGKIGTIWLIYEFGEIDRAVELFTTHFIEIFENSQNKNLYSGQAGILLVGLYFLSKGEIDNKLGEEILIRLREYTLNYIENPETFCKVGASDVQSNDPYENFGGLLYGHAGVAWLFGEAYKLTGESIYKNGLELAVDKELVAYKVDSNNSLQYSQGHRLLPYLATGSAGLLLLINRNKEILSSKYLKYLTSLERATDVVFCVLPGLFNGFCGLEVANNIYSDIDDNFSGQKKLIEQLYRYLCVIEEGFVIAGDNGLKITTDIASGFAGVAIGLVSIMDNKLTILPQI
modifications: not checked
As for B1, the stoichiometry N in test [2] and in test [3] was 2 each time.

B2: PneKC, wild type, N-terminal His7 tag, co-expressed with PneA from pQLinkN-PneKC-PneA (enzyme)
chain: B1 chain
modifications: not checked
Turning to B2, the stoichiometry N in test [4] worked out at 2.

The values are drawn from paper PMC11330476.
